Measured values as given in patent publication US20040106198.

Assays:
[1] = molecular target: T1, N-Suc-AAPM-pNA
T1 chain: AAPM

[2] = molecular target: T2, N-Suc-YLV-pNA
T2 chain: YLV

[3] = molecular target: oxidized bovine insulin B chain, P01317
[4] = molecular target: T3, N-Suc-GGG-pNA
T3 chain: GGG

[5] = molecular target: T4, N-Suc-AAA-pNA
T4 chain: AAA

[6] = molecular target: T5, N-Suc-AAPI-pNA
T5 chain: AAPI

[7] = molecular target: T6, N-Suc-GFG-pNA
T6 chain: GFG

[8] = molecular target: T7, N-Suc-IEGR-pNA
T7 chain: IEGR

[9] = molecular target: T8, N-Suc-FVR-pNA
T8 chain: FVR

[10] = molecular target: T9, N-Suc-AAPD-pNA
T9 chain: AAPD

[11] = molecular target: T10, N-Suc-AAV-pNA
T10 chain: AAV

[12] = molecular target: T11, N-Suc-AAPA-pNA
T11 chain: AAPA

[13] = molecular target: T12, N-Suc-YVAD-pNA
T12 chain: YVAD

[14] = molecular target: T13, N-Suc-AAPL-pNA
T13 chain: AAPL

[15] = molecular target: T14, N-Suc-GGL-pNA
T14 chain: GGL

[16] = molecular target: T15, N-Suc-GGF-pNA
T15 chain: GGF

[17] = molecular target: T16, N-Suc-GPK-pNA
T16 chain: GPK

[18] = molecular target: T17, N-Suc-PFR-pNA
T17 chain: PFR

[19] = molecular target: T18, N-Suc-AAPV-pNA
T18 chain: AAPV

[20] = molecular target: human growth hormone, P01241
Sequence of human growth hormone, P01241 (P01241 27-217): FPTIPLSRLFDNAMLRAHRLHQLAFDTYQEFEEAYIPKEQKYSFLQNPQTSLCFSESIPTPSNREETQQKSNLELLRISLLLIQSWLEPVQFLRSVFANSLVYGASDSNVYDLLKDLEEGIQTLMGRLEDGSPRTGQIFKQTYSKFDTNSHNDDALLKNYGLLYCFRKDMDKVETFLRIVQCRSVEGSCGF

[21] = molecular target: T19, N-Suc-AAPF-pNA
T19 chain: AAPF

[22] = molecular target: T20, N-Suc-AAVA-pNA
T20 chain: AAVA

[23] = molecular target: T21, N-Suc-VGR-pNA
T21 chain: VGR

Sequence of oxidized bovine insulin B chain, P01317 (P01317 25-54): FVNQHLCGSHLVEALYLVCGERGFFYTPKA

B1: Nicotianalisin (Nicotiana benthamiana subtilisin-like serine protease) (protein)
chain: ANCITMYFLLLTILLLTLNPLTMAESETYIIHMDLSAMPKAFSSHQNWYLTTLASVSGSSSLGTESNRNSFSSSKLVYAYTNAIHGFSATLSPSELQVIKNSPGYLSSTKDMTVKIDTTHTSQFLGLNSDSGAWPKSDYGKDVIVGLVDTGIWPESKSYNDNGMTEVPSRWKGECESGTQFNSSLCNKKLIGARYFNKGLIANNPNITISMNSARDTDGHGTHTSSTAAGSHVESASYFGYARGSATGMAPKAHVAMYKALWEEGTMLSDILAAIDQAIEDGVDIISLSLGIDDLALYEDPVAIATFAAMEKDIFVSTSAGNEGPDDQALHNGTPWVLTVAAGTVDREFIGTLSLGNGVSVTGLSLYPGNSSSSESSIVFLKTCLEEKELEKNAHKFAVCYDTNGSVSDQLYNVKNTKVAGGIFITNYTDLEFYLQSEFPAVFLNFEDGDKVLEYIKNSHSPKARLEFQVTHLGAKPAPKVASYSSRGPSESCPFILKPDLMAPGALILASWPQKSPATQIRSGELFSNFNIISGTSMSCPHAAGVAALLKGAHPKWSPAAIRSAMMTTADTMDNMQMPIRDIGRNNNAASPLAMGAGRINPNKALDPGLIYDITSQDYINLLCALDFTSQQIKAITRSSAYSCSNSSLDLNYPSFIGYFNYNSSESDPKRIQEFQRTVTNVGEGMSVYTAKLTSMGDYKASVAPDKLVFKEKYEKQSYKLRIEGPLLVDIILFMVL
- Relative Activity (release of p-NA at 410 nm, 0.3 mM substrate) (% of the activity with N-Suc-AAPL-pNA) [1]: 100
- Relative Activity (release of p-NA at 410 nm, 0.3 mM substrate) (% of the activity with N-Suc-AAPL-pNA) [2]: 0
- hydrolysis of oxidized insulin B chain, 2 to 16 hr at 37 C, MALDI-TOF of the cleavage products (FIG. 6) [3]: hydrolysis occurred after leucine, cysteine, proline, and lysine amino acid residues
- Relative Activity (release of p-NA at 410 nm, 0.3 mM substrate) (% of the activity with N-Suc-AAPL-pNA) [4]: 1
- Relative Activity (release of p-NA at 410 nm, 0.3 mM substrate) (% of the activity with N-Suc-AAPL-pNA) [5]: 2
- Relative Activity (release of p-NA at 410 nm, 0.3 mM substrate) (% of the activity with N-Suc-AAPL-pNA) [6]: 8
- Relative Activity (release of p-NA at 410 nm, 0.3 mM substrate) (% of the activity with N-Suc-AAPL-pNA) [7]: 1
- Relative Activity (release of p-NA at 410 nm, 0.3 mM substrate) (% of the activity with N-Suc-AAPL-pNA) [8]: 18
- Relative Activity (release of p-NA at 410 nm, 0.3 mM substrate) (% of the activity with N-Suc-AAPL-pNA) [9]: 1
- Relative Activity (release of p-NA at 410 nm, 0.3 mM substrate) (% of the activity with N-Suc-AAPL-pNA) [10]: 16
- Relative Activity (release of p-NA at 410 nm, 0.3 mM substrate) (% of the activity with N-Suc-AAPL-pNA) [11]: 5
- Relative Activity (release of p-NA at 410 nm, 0.3 mM substrate) (% of the activity with N-Suc-AAPL-pNA) [12]: 24
- Relative Activity (release of p-NA at 410 nm, 0.3 mM substrate) (% of the activity with N-Suc-AAPL-pNA) [13]: 70
- Relative Activity (release of p-NA at 410 nm, 0.3 mM substrate) (% of the activity with N-Suc-AAPL-pNA) [14]: 100
- Relative Activity (release of p-NA at 410 nm, 0.3 mM substrate) (% of the activity with N-Suc-AAPL-pNA) [15]: 1
- Relative Activity (release of p-NA at 410 nm, 0.3 mM substrate) (% of the activity with N-Suc-AAPL-pNA) [16]: 3
- Relative Activity (release of p-NA at 410 nm, 0.3 mM substrate) (% of the activity with N-Suc-AAPL-pNA) [17]: 2
- Relative Activity (release of p-NA at 410 nm, 0.3 mM substrate) (% of the activity with N-Suc-AAPL-pNA) [18]: 1
- Relative Activity (release of p-NA at 410 nm, 0.3 mM substrate) (% of the activity with N-Suc-AAPL-pNA) [19]: 8
- in vitro cleavage of purified hGH at a 1:50 protease:substrate ratio, 10-30 min at 30 C, SDS-PAGE and Western blot (FIGS. 7 and 8) [20]: Two prominent immunoreactive degradation products were detected
- Relative Activity (release of p-NA at 410 nm, 0.3 mM substrate) (% of the activity with N-Suc-AAPL-pNA) [21]: 67
- Relative Activity (release of p-NA at 410 nm, 0.3 mM substrate) (% of the activity with N-Suc-AAPL-pNA) [22]: 20
- Relative Activity (release of p-NA at 410 nm, 0.3 mM substrate) (% of the activity with N-Suc-AAPL-pNA) [23]: 3
